The series deals with the molecule itself. Put plainly: analytical ultracentrifugation.

B1: Phenylalanine hydroxylase regulatory domain (RDPheH) 1-117 (protein)
chain: MAAVVLENGVLSRKLSDFGQETSYIEDNSNQNGAISLIFSLKEEVGALAKVLRLFEENDINLTHIESRPSRLNKDEYEFFTYLDKRTKPVLGSIIKSLRNDIGATVHELSRDKEKNT
One may read the Kd as the equilibrium constant for the complex coming apart. Low readings indicate a tighter complex, high ones a looser complex. Regarding B1, binding was put at a Kd of 46 µM.

B2: Phenylalanine hydroxylase regulatory domain (RDPheH25-117) 25-117 (protein)
chain: IEDNSNQNGAISLIFSLKEEVGALAKVLRLFEENDINLTHIESRPSRLNKDEYEFFTYLDKRTKPVLGSIIKSLRNDIGATVHELSRDKEKNT
In turn, B2 displayed a Kd of 46 µM.

The values are drawn from article PMC4251497 (2014).
